Experimental data: patent US10160993B2, “Tyrosine kinase biosensors and methods of use” (Purdue Research Foundation, priority 2014, dated 2018)
No end group written: not given here. *: point of attachment. Biotin = O=C1N[C@H]2[C@H](CS[C@H]2CCCCC(=O)*)N1

Columns and labels:
Assay type in all cases: biochemical
ALK kinase = ALK kinase (Homo sapiens, UniProt Q9UM73); experiment: ELISA assay of peptide phosphorylation by ALK kinase in vitro; settings: 25 μM peptides, 0.1 unit kinase, 100 μM ATP, 10 mM Mg2+, pH 7.5, 35-38° C.
Procedure: (§1) Referring now to FIG. 1 which illustrates ALAStide-A (SEQ. ID NO. 1) and ALAStide-B (SEQ. ID NO. 2) being phosphorylated by ALK kinase in vitro, the results are obtained by an enzyme-linked immunosorbent assay (ELISA). […] Total reaction volume is 50 μL, and reaction temperature is set between 35-38° C. At selected time points, 5 μL, sample was taken out and quenched in 20 μL 40 mM EDTA solution. The quenched samples were then used to perform ELISA assay.

Abl = Abl (Homo sapiens, UniProt P00519); experiment: ELISA specificity assay, phosphorylation by Abl; settings: conditions similar to ALK ELISA
Procedure: as §1
(§2) The specificity of the ALK-specific biosensors, ALAStide-A and ALAStide-B is shown in an ELISA assay, with YFF peptide used as a positive and negative control. The ALK-specific biosensors were assayed for phosphorylation activity against ALK, Lyn, Abl, and Csk. YFF peptide, whose kinase specificity (as reported in Biochemistry 44, 8533-8542, 2005) is used as a reference. The experimental condition may be similar to those described for the ELISA assay above.

Lyn = Lyn (Homo sapiens, UniProt P07948); experiment: ELISA specificity assay, phosphorylation by Lyn; settings: conditions similar to ALK ELISA
Procedure: as §1, §2

Csk = Csk (Homo sapiens, UniProt P41240); experiment: ELISA specificity assay, phosphorylation by Csk; settings: conditions similar to ALK ELISA
Procedure: as §1, §2

Abl, sequence (P00519 whole entry, species assumed): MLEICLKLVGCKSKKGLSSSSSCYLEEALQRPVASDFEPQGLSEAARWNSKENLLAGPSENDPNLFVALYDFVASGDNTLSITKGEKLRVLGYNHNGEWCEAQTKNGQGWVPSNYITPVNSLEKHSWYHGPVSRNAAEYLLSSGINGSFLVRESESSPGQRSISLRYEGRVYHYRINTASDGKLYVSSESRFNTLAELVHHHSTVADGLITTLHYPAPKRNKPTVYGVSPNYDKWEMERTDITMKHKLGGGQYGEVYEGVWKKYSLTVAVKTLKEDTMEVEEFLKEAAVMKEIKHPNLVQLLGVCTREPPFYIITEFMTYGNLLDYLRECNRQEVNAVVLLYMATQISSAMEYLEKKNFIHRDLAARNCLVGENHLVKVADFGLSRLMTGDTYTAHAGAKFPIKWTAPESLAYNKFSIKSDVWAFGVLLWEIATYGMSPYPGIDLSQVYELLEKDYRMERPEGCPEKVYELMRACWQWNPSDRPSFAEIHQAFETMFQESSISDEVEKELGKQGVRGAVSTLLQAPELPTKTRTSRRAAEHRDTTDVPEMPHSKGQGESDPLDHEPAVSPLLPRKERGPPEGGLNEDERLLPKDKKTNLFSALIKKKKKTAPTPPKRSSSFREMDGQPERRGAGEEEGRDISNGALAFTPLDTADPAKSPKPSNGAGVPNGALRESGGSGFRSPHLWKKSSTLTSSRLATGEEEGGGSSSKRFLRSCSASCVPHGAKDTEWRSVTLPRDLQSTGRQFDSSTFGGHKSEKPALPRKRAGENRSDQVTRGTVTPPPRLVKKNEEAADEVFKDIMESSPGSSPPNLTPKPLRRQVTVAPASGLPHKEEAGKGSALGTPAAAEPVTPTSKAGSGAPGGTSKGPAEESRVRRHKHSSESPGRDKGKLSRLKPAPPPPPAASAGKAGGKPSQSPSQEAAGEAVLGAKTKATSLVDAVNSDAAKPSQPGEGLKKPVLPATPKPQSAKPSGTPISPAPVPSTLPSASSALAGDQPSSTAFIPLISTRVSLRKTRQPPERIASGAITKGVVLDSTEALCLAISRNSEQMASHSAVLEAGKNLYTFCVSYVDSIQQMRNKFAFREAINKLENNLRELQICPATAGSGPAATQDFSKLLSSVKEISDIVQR
Lyn, sequence (P07948 whole entry, species assumed): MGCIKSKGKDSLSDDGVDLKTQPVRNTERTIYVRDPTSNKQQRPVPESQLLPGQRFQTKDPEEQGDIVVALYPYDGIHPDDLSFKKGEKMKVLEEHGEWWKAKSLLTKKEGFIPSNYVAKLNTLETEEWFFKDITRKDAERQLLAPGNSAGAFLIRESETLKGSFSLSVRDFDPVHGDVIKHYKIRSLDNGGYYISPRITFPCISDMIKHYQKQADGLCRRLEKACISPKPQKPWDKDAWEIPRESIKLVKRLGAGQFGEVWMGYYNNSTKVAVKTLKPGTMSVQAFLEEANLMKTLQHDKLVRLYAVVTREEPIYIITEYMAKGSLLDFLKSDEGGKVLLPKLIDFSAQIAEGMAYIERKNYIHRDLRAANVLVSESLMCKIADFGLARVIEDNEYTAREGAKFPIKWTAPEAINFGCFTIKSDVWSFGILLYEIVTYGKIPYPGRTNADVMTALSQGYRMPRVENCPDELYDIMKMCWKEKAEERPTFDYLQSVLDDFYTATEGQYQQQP
ALK kinase, sequence (Q9UM73 19-1620): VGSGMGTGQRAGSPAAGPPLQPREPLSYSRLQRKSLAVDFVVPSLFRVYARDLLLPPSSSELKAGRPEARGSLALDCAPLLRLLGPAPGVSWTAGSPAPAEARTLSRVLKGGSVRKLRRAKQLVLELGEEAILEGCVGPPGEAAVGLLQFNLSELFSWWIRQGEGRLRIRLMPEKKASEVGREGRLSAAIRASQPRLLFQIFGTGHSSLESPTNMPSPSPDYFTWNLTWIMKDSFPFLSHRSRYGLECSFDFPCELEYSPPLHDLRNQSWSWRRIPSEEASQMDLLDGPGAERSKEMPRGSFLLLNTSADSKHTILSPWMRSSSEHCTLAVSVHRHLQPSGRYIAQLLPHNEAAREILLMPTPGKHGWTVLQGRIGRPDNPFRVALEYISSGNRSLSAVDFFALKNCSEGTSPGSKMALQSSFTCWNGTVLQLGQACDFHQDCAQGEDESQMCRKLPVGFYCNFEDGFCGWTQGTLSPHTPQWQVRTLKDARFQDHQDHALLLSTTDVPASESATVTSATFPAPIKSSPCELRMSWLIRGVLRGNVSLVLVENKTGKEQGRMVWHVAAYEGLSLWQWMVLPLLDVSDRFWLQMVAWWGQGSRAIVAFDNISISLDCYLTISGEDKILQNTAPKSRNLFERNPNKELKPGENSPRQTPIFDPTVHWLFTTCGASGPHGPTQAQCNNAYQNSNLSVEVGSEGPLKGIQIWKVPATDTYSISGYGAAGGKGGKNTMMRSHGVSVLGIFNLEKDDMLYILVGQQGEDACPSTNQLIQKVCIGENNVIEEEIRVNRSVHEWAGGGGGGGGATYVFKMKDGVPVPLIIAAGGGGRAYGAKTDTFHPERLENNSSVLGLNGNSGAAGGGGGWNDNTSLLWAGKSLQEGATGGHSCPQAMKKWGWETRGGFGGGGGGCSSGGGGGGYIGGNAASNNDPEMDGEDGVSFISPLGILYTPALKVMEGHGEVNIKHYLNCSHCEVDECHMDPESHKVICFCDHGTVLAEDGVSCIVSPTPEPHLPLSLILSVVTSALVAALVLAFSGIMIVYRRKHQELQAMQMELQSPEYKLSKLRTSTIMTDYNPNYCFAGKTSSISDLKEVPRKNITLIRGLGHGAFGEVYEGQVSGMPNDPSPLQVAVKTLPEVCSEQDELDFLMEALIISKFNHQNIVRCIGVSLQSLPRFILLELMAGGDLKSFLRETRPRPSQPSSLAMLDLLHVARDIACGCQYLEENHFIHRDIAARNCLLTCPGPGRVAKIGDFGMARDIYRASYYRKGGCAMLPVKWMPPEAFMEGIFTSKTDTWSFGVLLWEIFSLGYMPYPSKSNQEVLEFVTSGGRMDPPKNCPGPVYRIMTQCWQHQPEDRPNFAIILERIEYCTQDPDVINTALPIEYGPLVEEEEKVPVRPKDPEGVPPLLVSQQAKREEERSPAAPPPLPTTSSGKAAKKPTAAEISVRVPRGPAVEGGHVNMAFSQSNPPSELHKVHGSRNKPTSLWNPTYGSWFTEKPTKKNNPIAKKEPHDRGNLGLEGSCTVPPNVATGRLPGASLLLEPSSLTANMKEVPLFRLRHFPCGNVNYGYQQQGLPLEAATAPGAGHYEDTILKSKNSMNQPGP

| phosphorylation by Abl (ELISA) (Abl) | phosphorylation by Lyn (ELISA) (Lyn) | phosphorylation by Csk (ELISA) (Csk) | Substance | phosphorylation by ALK kinase (ELISA), compared with YFF peptide (ALK kinase) |
| --- | --- | --- | --- | --- |
| not phosphorylated | not phosphorylated | not phosphorylated | FDMDRDIYRMSFFRKGGKbGG (FDMDRDIYRMSFFRKGGK(Biotin)GG) [ALAStide-A, ALK-specific biosensor peptide; Kb is biotinylated lysine] | higher phosphorylation activity than YFF and ALAStide-B |
| not phosphorylated | not phosphorylated | not phosphorylated | FDMDRDIYTNTFFRKGGKbGG (FDMDRDIYTNTFFRKGGK(Biotin)GG) [ALAStide-B, ALK-specific biosensor peptide; Kb is biotinylated lysine] | comparable phosphorylation level with YFF peptide |
| lack of affinity | lack of affinity | lack of affinity | FGMARDIYRASFFRKGGKbGG (FGMARDIYRASFFRKGGK(Biotin)GG) [YFF peptide, known peptide substrate of ALK in the literature, reference compound] |  |
